Reference: patent US20230136723A1
Blank lines part the entries; values can stand above or below the molecule they belong to.

Experiments:
[1] = target: human PD-L1 (human) (UniProt Q9NZQ7); test: flow cytometry, transfected cells
[2] = target: human CTLA-4 (human) (UniProt P16410); test: flow cytometry, transfected cells
[3] = target: human PD-L1, full-length, expressed on transfected Expi293F cells (human) (UniProt Q9NZQ7); test: flow cytometry, PD-L1-transfected Expi293 cells
[4] = target: human PD-L1, full-length, expressed on transfected Expi293F cells (human) (UniProt Q9NZQ7); test: flow cytometry, PD-L1-transfected cells; MFI over WT CD80 ECD-Fc
[5] = target: human CD28 (human) (UniProt P10747); test: flow cytometry; ratio to WT stack m3
[6] = target: human CD28 (human) (UniProt P10747); test: flow cytometry on transfected cells

UniProt P16410, sequence (P16410 36-223): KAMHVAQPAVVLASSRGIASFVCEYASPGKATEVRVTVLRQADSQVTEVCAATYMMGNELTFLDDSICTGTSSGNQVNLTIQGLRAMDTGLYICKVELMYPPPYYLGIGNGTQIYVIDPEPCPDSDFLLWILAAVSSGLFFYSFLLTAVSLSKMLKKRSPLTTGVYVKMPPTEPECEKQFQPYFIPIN

MFI [3]: 9 MFI
Molecule: variant CD80 ECD-Fc fusion A91G/S103P

WT parental MFI ratio [5]: 0.57
MFI [6]: 938 MFI
B1: Domain 1: CD80 I67T/L70Q/A91G/T120S / Domain 2: CD80 E88D/K89R/D90K/A91G/F92Y/K93R / Fc (Fc fusion)
chain: VIHVTKEVKEVATLSCGHNVSVEELAQTRIYWQKEKKMVLTMMSGDMNIWPEYKNRTIFDITNNLSTVIQALRPSDEGTYECVVLKYEKDGFKREHLAEVTLSVKADFPTPSISDFEIPGGGGSGGGGSGGGGSVIHVTKEVKEVATLSCGHNVSVEELAQTRIYWQKEKKMVLTMMSGDMNIWPEYKNRTIFDITNNLSIVILALRPSDEGTYECVVLKYDRKGYRREHLAEVTLSVKADFPTPSISDFEIPGGGGSGGGGSAAAEPKSSDKTHTCPPCPAPELLGGPSVFLFPPKPKDTLMISRTPEVTCVVVDVSHEDPEVKFNWYVDGVEVHNAKTKPCEEQYGSTYRCVSVLTVLHQDWLNGKEYKCKVSNKALPAPIEKTISKAKGQPREPQVYTLPPSREEMTKNQVSLTCLVKGFYPSDIAVEWESNGQPENNYKTTPPVLDSDGSFFLYSKLTVDKSRWQQGNVFSCSVMHEALHNHYTQKSLSLSPGK

The remaining lines, values behind:

Molecule: variant CD80 ECD-Fc H18L/R29D/Y31L/Q33H/K36G/M38I/T41A/M43R/M47T/E81V/L85R/K89N/A91T/F92P/K93V/R94L/L97R/T130A/N149S (Fc fusion)
MFI [1]: 100000
MFI [2]: 2180

Molecule: variant CD80 ECD-Fc fusion V20L/L70Q/A91S/I118V/T120S/T130A
MFI [3]: 9 MFI
MFI parental ratio [4]: 0.13
